Laboratory results reported in patent US20140194361A1, “Vault Agents for Treating Chronic Kidney Disease” (priority 2010, published 2014).

Biological target: α5β1 integrin receptor on primary mesangial cells
Experiment: cell-based or functional assay

D-vault (CGRGDSP peptide-INT packaged in purified vault)
inhibition of attachment of MC to fibronectin compared to untreated MC: 1.7 fold
